Test results as given in patent US20230009582A1 (MEMO THERAPEUTICS, published 2023).

T1: Siglec-15-Fc (R&D systems) (UniProt Q6ZMC9 20-263, limits assumed)
T1 construct: Bought reagent; not shown: Fc part of the bought fusion; not described
T1 sequence (looked up): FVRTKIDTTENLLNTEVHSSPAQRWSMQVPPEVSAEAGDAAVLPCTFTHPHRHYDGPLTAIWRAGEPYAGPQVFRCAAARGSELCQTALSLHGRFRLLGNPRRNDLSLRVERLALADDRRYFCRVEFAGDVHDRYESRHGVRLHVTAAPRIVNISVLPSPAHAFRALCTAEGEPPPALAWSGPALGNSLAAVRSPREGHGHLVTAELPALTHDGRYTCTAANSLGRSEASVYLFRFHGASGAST

T2: Siglec-5-Fc (R&D systems) (UniProt O15389 17-434, limits assumed)
T2 construct: Bought reagent; not shown: Fc part of the bought fusion; not described
T2 sequence (looked up): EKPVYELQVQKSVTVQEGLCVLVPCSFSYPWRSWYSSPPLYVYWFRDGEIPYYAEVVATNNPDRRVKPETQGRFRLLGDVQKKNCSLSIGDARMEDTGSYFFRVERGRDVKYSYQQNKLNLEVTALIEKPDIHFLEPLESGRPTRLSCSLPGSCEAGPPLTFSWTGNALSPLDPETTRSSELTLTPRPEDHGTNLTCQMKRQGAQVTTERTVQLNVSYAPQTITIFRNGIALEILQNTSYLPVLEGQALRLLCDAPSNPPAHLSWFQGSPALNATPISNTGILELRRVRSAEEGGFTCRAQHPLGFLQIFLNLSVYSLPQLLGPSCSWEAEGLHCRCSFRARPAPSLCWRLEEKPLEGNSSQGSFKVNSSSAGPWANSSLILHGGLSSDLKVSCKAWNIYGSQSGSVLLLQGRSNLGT


Tests used:
[1] = molecular target: T3, Siglec-8-Fc (R&D systems) (UniProt Q9NYZ4 17-363, limits assumed); assay: ELISA, coated Siglec-8-Fc 1 µg/ml, single antibody concentration, Abs 450 nm, n=3
T3 construct: Bought reagent; not shown: Fc part of the bought fusion; not described
Description: (§1) Specificity towards Siglec-5, Siglec-7, Siglec-8, Siglec-15 and Siglec-9 was assayed in enzyme-linked immunosorbent assay (ELISA) using 96 well half-area ELISA plates (Corning). Siglec-5-Fc (R&D systems), Siglec-7-Fc (in-house production, Siglec-7-Fc protein used had the following amino acid sequence:
(§2) (SEQ ID NO: 59)) […] […] […] […] […] […] […] […] […] […] […] […], Siglec-8-Fc (R&D systems), Siglec-15- Fc (R&D systems) and Siglec-9-Fc (in-house production, SEQ ID NO: 11) were coated at 1 μg/ml in 50 mM carbonate-bicarbonate buffer pH 9.6 for 15-20 hours at 4° C.
(§3) Antigens were washed away (Tecan Hydrospeed) and plates were blocked with 5% skimmed milk in phosphate-buffered saline (PBS). After washing the plates, antibodies were added at 5 μg/ml (33 nM) in 0.5% milk PBS in triplicates. Plates with antibodies were incubated for 1 hour at room temperature. Plates were washed and bound antibodies were detected by horseradish peroxidase (HRP)-labeled polyclonal anti-rabbit IgG antibody (Biolegend) or anti-human Fab fragment for mAbA (Sigma Aldrich). 3,3′,5,5′-Tetramethylbenzidine (TMB; Sigma Aldrich) development was stopped by addition of sulfuric acid and absorbance was detected at 450 nm (Tecan, CM […] MONO 200).

[2] = molecular target: T1, Siglec-15-Fc (R&D systems); assay: ELISA, coated Siglec-15-Fc 1 µg/ml, single antibody concentration, Abs 450 nm, n=3
Description: as §1, §2, §3

[3] = molecular target: T4, Siglec-9 expressed on cells (human, UniProt Q9Y336 18-463); assay: flow cytometry on human CD14+ monocytes (PBMC), mean RFU of the secondary antibody, three-parameter fit
T4 construct: also called monocyte-expressed Siglec-9
Description: (§4) Human ex vivo PBMC were stained with fluorescence-labeled (allophycocyanin, APC) antibody to the monocyte marker CD14 (Biolegend) in assay buffer (0.5% (v/v) heat-inactivated fetal bovine serum (Gibco), 2 mM EDTA in phosphate-buffered saline). Subsequently, cells were incubated with antibodies under evaluation at various concentrations (67 nM-0.38 pM). After a washing step cells were incubated with fluorescence-labeled (Brilliant Violet 421™) secondary antibody against human IgG (mAbA) or rabbit IgG (all other monoclonal antibodies under evaluation; both secondary antibodies from Biolegend).
(§5) Binding of Siglec-9-specific antibodies to monocytes (CD14-positive life cells) was analysed with a CytoFLEX flow cytometer (Beckham Coulter's). The mean fluorescence intensity of the secondary antibody staining in the CD14-positive population at each dilution was determined using Flow Jo software (BD). Datapoints generated by this analysis were fitted and EC50 values were determined by three-parameter analysis in GraphPad Prism (GraphPad Software)

[4] = molecular target: T5, Siglec-9 protein (construct not stated; antigen of Examples 3 and 4) (human, UniProt Q9Y336 18-348, limits assumed); assay: ELISA, coated Siglec-9 1 µg/ml, antibody titrated, Abs 450 nm, three-parameter fit, n=3
Description: FIG. 2: Binding curves of monoclonal antibodies (68D4 and 224B1; comparative monoclonal antibodies mAbA and 5C6 & negative control 53C3) towards Siglec-9 as analysed by ELISA. Binding of the monoclonal antibody to Siglec-9, as determined by measurement of the accumulated coloured product at 450 nm after stopping the reaction, is plotted against the concentration of the monoclonal antibody under evaluation.
Antibody binding affinity towards Siglec-9 was measured by a dilution series of the analysed antibodies on a fixed concentration of Siglec-9 protein in ELISA. To this end, Siglec-9 was coated at 1 μg/ml in 50 mM carbonate-bicarbonate buffer pH 9.6 for 15-20 hours at 4° C. Antigen solution was washed away (Tecan Hydrospeed) and plates were blocked with 5% skimmed milk in phosphate-buffered saline (PBS) for 1 hour at room temperature. Plates were washed and antibodies were added at concentrations of 0-420 nM. After incubation at room temperature for 1 hour plates were washed once more. Bound antibodies were detected by addition of horseradish peroxidase (HRP)-coupled secondary antibodies. Rabbit antibodies were detected by polyclonal anti-rabbit IgG antibody (Biolegend), mAbA by anti-human Fab fragment (Sigma Aldrich). After a last washing step, plates were developed by the addition of 3,3′,5,5′-Tetramethylbenzidine (TMB; Sigma Aldrich). Reaction was stopped by addition of sulfuric acid. Absorbance was detected at 450 nm (Tecan, CM […] MONO 200). Data were fitted and EC50 values were determined by three-parameter analysis in GraphPad Prism (GraphPad Software)

[5] = molecular target: T6, Siglec-7-Fc (in-house production); assay: ELISA, coated Siglec-7-Fc 1 µg/ml, single antibody concentration, Abs 450 nm, n=3
T6 construct: The entry holds the Siglec-7 part and the Fc together; also called Siglec-7-Fc protein
Description: as §1, §2, §3

[6] = molecular target: T2, Siglec-5-Fc (R&D systems); assay: ELISA, coated Siglec-5-Fc 1 µg/ml, single antibody concentration, Abs 450 nm, n=3
Description: as §1, §2, §3

[7] = molecular target: T7, Siglec-9-Fc (in-house production); assay: blocking assay: Calcein-AM labelled sialic acid-displaying A549 tumour cells binding to plate-captured Siglec-9-Fc, antibody titrated, n=3
T7 construct: The entry holds the Siglec-9 part and the Fc together; also called Siglec-9-Fc protein
Description: FIG. 4: Titration of monoclonal antibodies (68D4 and 224B1; comparative monoclonal antibodies mAbA and 5C6 & negative control 53C3) to determine blocking the binding of sialic acid-displaying A549 tumour cells to Siglec-9. Tumour cells were fluorescently-loaded with Calcein-AM in advance to the binding experiment and binding was determined by the released fluorescence upon cell lysis. Fluorescence released in the absence of antibody was set to 100% binding. Data was fitted by three-parameter analysis in GraphPad Prism (GraphPad Software); n=3.
To analyse if anti-Siglec-9 antibodies recognize the ligand-binding domain and block the binding of Siglec-9 to its ligands, sialic acids, we performed a cell-based assay where the binding of sialic-acid expressing A549 tumour cells to Siglec-9-Fc is evaluated in ELISA. ELISA-plates were coated with 3 μg/ml Protein-A (Thermo Fisher Scientific) overnight at 4° C. Plates were blocked with PBS, 1% BSA for 1 h, and incubated with 5 μg/ml Siglec-9-Fc for 1 h at RT. Anti-Siglec-9 antibodies at different concentrations (starting at 8 μg/ml or 53 nM); were mixed 1:1 with Calcein-AM (Thermo Fisher Scientific) labeled A549 tumour cells. The mixture was added to the ELISA plate and incubated for 1 h at 4° C. After washing of the plate, cells that were bound to the plate were lysed with PBS, 1% Triton-X 100 and released fluorescence was measured at an excitation of 485 nm and emission of 535 nm with a Synergy H1 (BioTek). Data were fitted by three-parameter analysis in GraphPad Prism (GraphPad Software).

[8] = molecular target: T4, Siglec-9 expressed on cells; assay: flow cytometry on human CD14+ monocytes in PBMC
Description: as §4, §5

[9] = molecular target: T5, Siglec-9 protein (construct not stated; …); assay: SPR (Carterra LSA), antibody coupled to HC2000M chip, antigen in solution
Description: (§6) KD determination was performed by SPR by individually coating the antibodies to HC2000M chips via sulpho-NHS/EDC coupling chemistry. Chips were afterwards blocked with ethanolamine. Antigen was applied in one of the three different concentrations (20 nM, 100 nM and 500 nM) with a contact time of 240 s, followed by a dissociation phase of 120 s. After each antigen incubation, the bound antigen was removed from the antibodies with 10 mM glycine at pH 2.0. All kinetic parameters (kₒₙ, koff and KD) were determined using a kinetic fitting program (LSA Kinetics, Carterra).

[10] = molecular target: T7, Siglec-9-Fc (in-house production); assay: ELISA, coated Siglec-9-Fc 1 µg/ml, antibody at 5 µg/ml (33 nM), Abs 450 nm, n=3
Description: as §1, §2, §3

[11] = molecular target: T5, Siglec-9 protein (construct not stated; …); assay: SPR (Carterra LSA), antibody coupled to HC2000M chip, antigen at 20, 100 and 500 nM
Description: as §6

[12] = molecular target: extra-cellular domain of Siglec-9 fused to a C-terminal his-tag (Homo sapiens (Human), UniProt Q9Y336 18-348); assay: ELISA, coated his-tagged Siglec-9 extracellular domain, anti-human Fc gamma detection, Abs 450 nm
Source text: (SEQ ID NO: 44) […] […] […] […] […] […] […]. For detection of bound IgG either polyclonal anti- rabbit IgG antibody (68D4; Biolegend, #406401), or anti-human Fey fragment (humanized 68D4 and mAbA; Jackson Immuno Research laboratories, #109-035-098) were used.

T4 sequence (Q9Y336 18-463 limits assumed): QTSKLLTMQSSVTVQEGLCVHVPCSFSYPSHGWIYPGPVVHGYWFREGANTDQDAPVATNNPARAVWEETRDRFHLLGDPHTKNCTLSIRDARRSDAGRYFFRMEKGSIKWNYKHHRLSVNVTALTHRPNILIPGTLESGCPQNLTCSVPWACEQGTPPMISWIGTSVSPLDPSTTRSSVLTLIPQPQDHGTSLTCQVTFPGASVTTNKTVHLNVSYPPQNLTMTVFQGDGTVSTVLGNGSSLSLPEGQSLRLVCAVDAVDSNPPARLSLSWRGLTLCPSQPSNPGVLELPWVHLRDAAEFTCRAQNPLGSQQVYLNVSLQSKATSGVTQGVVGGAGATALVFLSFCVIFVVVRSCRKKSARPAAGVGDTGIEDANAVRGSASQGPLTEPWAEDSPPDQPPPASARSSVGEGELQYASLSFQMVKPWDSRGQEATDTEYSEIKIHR
T5 sequence (Q9Y336 18-348 limits assumed): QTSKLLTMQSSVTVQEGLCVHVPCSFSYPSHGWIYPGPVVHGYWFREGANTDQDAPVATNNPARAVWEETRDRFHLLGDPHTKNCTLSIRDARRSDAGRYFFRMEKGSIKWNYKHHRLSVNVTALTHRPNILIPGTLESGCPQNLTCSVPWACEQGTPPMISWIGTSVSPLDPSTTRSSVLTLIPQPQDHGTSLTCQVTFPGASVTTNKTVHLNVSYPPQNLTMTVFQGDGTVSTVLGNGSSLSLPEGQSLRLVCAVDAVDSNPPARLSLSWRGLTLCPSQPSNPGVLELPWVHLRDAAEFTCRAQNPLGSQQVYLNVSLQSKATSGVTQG
T6 sequence (chain, as listed by the source limits assumed): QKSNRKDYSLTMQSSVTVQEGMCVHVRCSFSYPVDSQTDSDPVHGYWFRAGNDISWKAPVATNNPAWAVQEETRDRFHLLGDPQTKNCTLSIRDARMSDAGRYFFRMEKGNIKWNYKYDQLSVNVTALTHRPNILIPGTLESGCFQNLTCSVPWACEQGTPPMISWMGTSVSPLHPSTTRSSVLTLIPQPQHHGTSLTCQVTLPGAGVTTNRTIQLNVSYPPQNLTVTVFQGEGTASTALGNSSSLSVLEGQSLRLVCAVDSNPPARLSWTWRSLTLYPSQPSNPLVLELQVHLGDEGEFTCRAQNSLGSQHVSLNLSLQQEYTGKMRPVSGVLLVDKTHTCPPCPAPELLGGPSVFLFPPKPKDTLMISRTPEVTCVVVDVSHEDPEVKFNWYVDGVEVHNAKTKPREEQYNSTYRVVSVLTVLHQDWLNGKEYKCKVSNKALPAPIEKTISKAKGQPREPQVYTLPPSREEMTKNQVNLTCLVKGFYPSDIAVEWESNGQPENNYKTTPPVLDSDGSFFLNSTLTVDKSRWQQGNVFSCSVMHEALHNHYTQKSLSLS
T7 sequence (chain, as listed by the source limits assumed): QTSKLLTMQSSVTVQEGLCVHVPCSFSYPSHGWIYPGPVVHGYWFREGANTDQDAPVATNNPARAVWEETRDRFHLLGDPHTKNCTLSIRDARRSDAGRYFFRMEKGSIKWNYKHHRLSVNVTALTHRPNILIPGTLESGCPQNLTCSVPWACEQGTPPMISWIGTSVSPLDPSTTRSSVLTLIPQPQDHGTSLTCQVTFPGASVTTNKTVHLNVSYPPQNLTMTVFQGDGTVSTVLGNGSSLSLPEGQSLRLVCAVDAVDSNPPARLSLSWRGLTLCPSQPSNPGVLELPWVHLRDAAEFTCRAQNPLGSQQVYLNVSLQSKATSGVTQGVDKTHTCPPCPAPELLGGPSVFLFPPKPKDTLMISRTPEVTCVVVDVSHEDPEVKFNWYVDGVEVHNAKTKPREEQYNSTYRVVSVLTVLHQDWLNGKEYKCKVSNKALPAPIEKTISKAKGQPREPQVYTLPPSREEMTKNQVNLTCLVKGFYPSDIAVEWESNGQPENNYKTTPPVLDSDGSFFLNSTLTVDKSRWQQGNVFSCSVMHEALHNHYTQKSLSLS
T3 sequence (Q9NYZ4 17-363 limits assumed): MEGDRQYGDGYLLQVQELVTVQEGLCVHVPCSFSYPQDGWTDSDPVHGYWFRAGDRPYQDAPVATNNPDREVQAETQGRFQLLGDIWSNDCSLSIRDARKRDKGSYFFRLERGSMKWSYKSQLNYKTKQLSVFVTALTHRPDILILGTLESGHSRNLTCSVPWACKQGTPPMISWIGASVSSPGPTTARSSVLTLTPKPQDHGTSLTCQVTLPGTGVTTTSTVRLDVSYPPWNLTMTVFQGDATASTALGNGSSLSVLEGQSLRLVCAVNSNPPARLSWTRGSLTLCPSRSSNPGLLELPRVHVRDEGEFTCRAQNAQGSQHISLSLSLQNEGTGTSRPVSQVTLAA
Chain of extra-cellular domain of Siglec-9 fused to a C-terminal his-tag (Q9Y336 18-348 limits assumed): as the sequence (Q9Y336 18-348 limits assumed) above

binding result [1] | binding result [2] | EC50 [3] | EC50 [4] | binding result [5] | binding result [6] | binding result [7] | fold stronger avidity than mAbA [8] | fold stronger binding than 5C6 [8] | fold better dissociation constant than mAbA [9] | binding result [10] | Kd [11] | koff [11] | kon [11] | EC50 (read off the curve) [12] | Binder
no binding (tested: 5 µg/ml) | no binding (tested: 5 µg/ml) | 4.18 nM | 0.34 nM | no binding (tested: 5 µg/ml) | no binding (tested: 5 µg/ml) | binds |  |  |  |  |  |  |  |  | comparative monoclonal antibody 5C6 (WO 2017/075432), mouse-rabbit chimera (antibody, V domains shown) VH: EVQLQQSGPELVKPGASVRISCKASGYTFTDYNIHWVKQSQGKSLEWIGYIYPYNGDTGYNQKFQNKATLTVDNSSSTAYMELRSLTSEDSAVYYCANGNYLYYYAMDYWGQGTSVTVSS VL: DVVMTQTPLSLPVSLGDQVSISCSSSQSLVHSNGNTYLHWYLQKSGQSPKLLIYKVSNRFSGVPDRFRGSGSGTDFTLKISRVEAEDLGVYFCSQNTHVPLTFGAGTKLELKG
no binding (tested: 5 µg/ml) | no binding (tested: 5 µg/ml) | 0.19 nM | 0.05 nM | no binding (tested: 5 µg/ml) | no binding (tested: 5 µg/ml) |  | ~3 fold | ~22 fold | ~16.7 fold | binds | 0.15 nM | 9.6e-05 s⁻¹ | 640000 M⁻¹ s⁻¹ |  | monoclonal antibody 68D4 (rabbit) (antibody, V domains shown, also called rb 68D4; rabbit 68D4) VH: QSLEESGGRLVKPDETLTITCTVSGIDLSSYDMTWVRQAPGKGLEWIGIIYTGGLTYYASWAKGRFTISKTSTTVDLKITSPTTEDTATYFCAREVGDNNNFWGPGTLVTVSS VL: DVVMTQTPASVSEPVGGTVTIKCQASESVDSGLAWYHQKPGQPPKLLIYDDTDLASGVPSRFKGSRSGTAHTLTISDLECADAATYYCQYTDYGRTYVGTFGGGTEVVIKG
 |  |  |  |  |  |  |  |  |  |  |  |  |  | ~0.06 nM | humanized anti-Siglec-9 antibody 68D4 (68D4-hum) (antibody, human IgG1, kappa, V domains shown, Human IgG1/kappa, expressed in HEK293F cells; also called humanized 68D4) VH: EVQLVESGGGLVQPGGSLRISCAASGIDLSSYDMTWVRQAPGKGLEWVSIIYTGGLTYYADSVKGRFTISRDNSKNTVYLQMNSLRAEDTAVYYCAREVGDNNNFWGQGTLVTVSS VL: DIVMTQSPSSVSASVGDRVTITCRASESVSSGLAWYQQKPGKAPKLLVYDDTDLASGVPSRFSGSGSGTEFTLTISSLQPDDFATFYCQYTDYGRTYVGTFGGGTKVEIKR
